Target: HLA-A*0301 (human)

| Binder | HLA-A*0301 stabilization relative to HIV RK9 [%] |
| --- | --- |
| GNYQCGHYK (modifications not checked) | > 50 |
| KGIYQTSNFR (modifications not checked) | > 50 |
| RVIHFGAGSDK (modifications not checked) | > 50 |
| VMCGGSLYVK (modifications not checked) | > 50 |
